{"source": "paper PMC3593212", "about": "“Sequence-Specific, RNA–Protein Interactions Overcome Electrostatic Barriers Preventing Assembly of Satellite Tobacco Necrosis Virus Coat Protein” (Journal of Molecular Biology, 2013)", "key": {"[1]": {"biological_target": "the molecule itself", "assay": "crystal structure; VLP reassembled from purified CP with B3 RNA aptamer (5:1 w/w CP:RNA) in 50 mM Hepes, 3 mM CaCl2, pH 7.5, purified by SEC; crystals in 50 mM phosphate pH 6.2-6.8, 0.2-0.8% PEG 6000, 0-1 mM MgCl2, 25 °C; strict 60-fold NCS"}, "STNV-1 coat protein (CP) [2]": {"biological_target": "T1, STNV-1 coat protein (CP) (Satellite tobacco necrosis virus 1 …, UniProt P03606 1-196)", "T1 sequence": "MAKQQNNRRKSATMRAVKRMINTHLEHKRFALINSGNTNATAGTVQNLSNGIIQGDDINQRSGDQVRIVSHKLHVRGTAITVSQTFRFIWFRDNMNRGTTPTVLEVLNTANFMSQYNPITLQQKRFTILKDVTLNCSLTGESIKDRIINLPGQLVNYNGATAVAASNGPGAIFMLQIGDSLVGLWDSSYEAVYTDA", "assay": "analytical ultracentrifugation (capsid reassembly); heterologous RNA; triggers capsid assembly; Reassembly buffer, salt, pH and temperature not in the material (capsid assembly depends on calcium and pH); short RNAs at molar ratios incl. 1:1 and 2.5:1; CP", "details": "protein: recombinant; hairpin, loop AUUA"}, "STNV-1 coat protein (CP) [3]": {"biological_target": "T1, STNV-1 coat protein (CP)", "assay": "analytical ultracentrifugation (capsid reassembly); assembly more efficient than B3; Reassembly buffer, salt, pH and temperature not in the material (capsid assembly depends on calcium and pH); short RNAs at molar ratios incl. 1:1 and 2.5:1; CP", "details": "protein: recombinant; hairpin, 4-nt loop ACAA"}, "STNV-1 coat protein (CP) [4]": {"biological_target": "T1, STNV-1 coat protein (CP)", "assay": "analytical ultracentrifugation (capsid reassembly), TEM; VLPs form even at lowest molar ratio; 28 S and ~42 S species at 1:1; Reassembly buffer, salt, pH and temperature not in the material (capsid assembly depends on calcium and pH); short RNAs at molar ratios incl. 1:1 and 2.5:1; CP", "details": "protein: recombinant; hairpin, 4-nt loop ACAA"}}}
{"binder": "satellite tobacco necrosis virus (STNV-1) coat protein (natural protein, coat protein of satellite tobacco necrosis virus strain 1 (STNV-1), recombinant version expressed from a synthetic gene; In the T = 1 capsid the chain stands 60 times; all assembly here was done with RNA present; also called STNV CP; CP; source: E. coli (synthetic gene); recombinant VLPs purified, disassembled in 50 mM Hepes, 10 mM EDTA, pH 8.5; CP separated from the mRNA by Q-Sepharose FF and SP …) MAKQQNNRRKSATMRAVKRMINTHLEHKRFALINSGNTNATAGTVQNLSNGIIQGDDINQRSGDQVRIVSHKLHVRGTAITVSQTFRFIWFRDNMNRGTTPTVLEVLNTANFMSQYNPITLQQKRFTILKDVTLNCSLTGESIKDRIINLPGQLVNYNGATAVAASNGPGAIFMLQIGDSLVGLWDSSYEAVYTDA", "values": [{"measurement": "stoichiometry N", "setting": "[1]", "result": 60}]}
{"binder": "ACAUGAGGAUUACCCAUGU (structured_RNA)", "note": "[MS2 TR]", "values": [{"measurement": "binding result", "setting": "STNV-1 coat protein (CP) [2]", "result": "binds"}]}
{"binder": "CGUGCAACAAUGCACG (structured_RNA)", "note": "[B3 short]", "values": [{"measurement": "binding result", "setting": "STNV-1 coat protein (CP) [3]", "result": "binds"}]}
{"binder": "CCUUUUCAAGACAUGCAACAAUGCACACAG (structured_RNA)", "note": "[B3 aptamer]", "values": [{"measurement": "binding result", "setting": "STNV-1 coat protein (CP) [4]", "result": "binds"}]}
